Measured values published in publication PMC6588284 (Biochemistry, 2019).

How the values were obtained:
[1] = molecular target: KvAP-C247S (Aeropyrum pernix); experiment: cross-linking
[2] = molecular target: KvAPΔCTD+Lys (Aeropyrum pernix); experiment: cross-linking
[3] = molecular target: SUMO CTD fusion with the native C247 residue (Aeropyrum pernix); experiment: cross-linking
[4] = molecular target: SUMO-GCN4 fusion protein (Aeropyrum pernix | not stated); experiment: SEC
[5] = molecular target: SUMO-GCN4 fusion protein (Aeropyrum pernix | not stated); experiment: cross-linking
[6] = molecular target: KvAP-C247S (Aeropyrum pernix); experiment: cross-linking; remark: listed apart in the source
SEC = molecular target: the molecule itself; experiment: SEC

KvAP-C247S (natural protein)
stoichiometry N [1]: 4

KvAPΔCTD+Lys (domain or fragment)
percent cross-linked (tetramer) [2]: 100%
percent tetramer at 2 hours [2]: 4%
stoichiometry N [2]: 4
tetramer yield relative to the full length protein [2]: 0.5

SUMO CTD fusion with the native C247 residue (domain or fragment)
stoichiometry N [3]: 2

SUMO-GCN4 fusion protein
stoichiometry N [4]: 4
stoichiometry N [5]: 4

B1: S6-CTD peptide (peptide)
peptide: CVTATTVGYGDVVPATPIGKVIGIAVMLTGISALTLLIGTVSNMFQKILVGEPEPSSSPAKLAEMVSSMSEEEFEEFVRTLKNLRRLENSMKGS
percent decrease in the KvAP tetramer yield [6]: 60%

LVGEPEPSSSPAKLAEMVSSMSEEEFEEFVRTLKNLRRLENSMK (domain or fragment, Aeropyrum pernix) [SUMO-CTD fusion protein]
stoichiometry N (SEC): 2
